Patent publication US20240226298A1 (JUNO THERAPEUTICS, published 2024)

T1: B-lymphocyte antigen CD19 (CD19) (human, UniProt P15391 20-556)
T1 sequence (looked up): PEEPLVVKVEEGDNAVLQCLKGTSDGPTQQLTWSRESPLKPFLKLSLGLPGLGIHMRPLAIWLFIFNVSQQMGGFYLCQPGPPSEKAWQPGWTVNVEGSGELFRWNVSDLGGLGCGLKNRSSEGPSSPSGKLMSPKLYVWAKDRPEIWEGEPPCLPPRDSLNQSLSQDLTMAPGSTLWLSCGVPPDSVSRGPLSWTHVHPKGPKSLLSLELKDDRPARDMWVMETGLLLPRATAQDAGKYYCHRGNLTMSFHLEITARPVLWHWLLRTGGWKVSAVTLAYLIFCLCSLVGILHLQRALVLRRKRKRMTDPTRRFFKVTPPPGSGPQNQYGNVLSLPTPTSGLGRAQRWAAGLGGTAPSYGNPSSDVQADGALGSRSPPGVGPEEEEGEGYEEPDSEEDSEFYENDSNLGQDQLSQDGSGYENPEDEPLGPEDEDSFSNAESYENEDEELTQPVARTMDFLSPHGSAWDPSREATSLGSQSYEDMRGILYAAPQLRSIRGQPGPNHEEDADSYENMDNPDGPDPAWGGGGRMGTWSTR


Columns and labels:
Test in all cases: cell-based or functional assay
[1] = molecular target: T2, B-cell activating factor receptor (BAFF-R) (human, UniProt Q96RJ3 1-184)
[2] = molecular target: T2, B-cell activating factor receptor …; remark: listed apart in the source
[3] = molecular target: T1, B-lymphocyte antigen CD19 (CD19)

Binder | decrease in IFN-γ production with FMC63 scFv + sBAFF relative to FMC63 scFv alone (JeKo-1 co-culture) [1] [%] | inhibition of IFN-γ production by CAR T cells when JeKo-1 target cells were preincubated with both FMC63 scFv and sBAFF (20 µg/mL each), relative to target-only co-culture; legend: ++ = High, >80% [2] [%] | inhibition of IFN-γ production by CAR T cells when JeKo-1 target cells were preincubated with both FMC63 scFv and sBAFF (20 µg/mL each), relative to target-only co-culture; legend: ++ = High, >80% [3] [%] | decrease of IFN-γ with FMC63 scFv + sBAFF compared to the inhibition from FMC63 scFv alone (JeKo-1 co-culture) [1] [%] | decrease in IFN-γ production with sBAFF, alone or relative to FMC63 scFv alone (JeKo-1 co-culture) [1] [%]
JH1 CAR/LoP (other) DIQMTQTTSSLSASLGDRVTISCRASQDISKYLNWYQQKPDGTVKLLIYHTSRLHSGVPSRFSGSGSGTDYSLTISNLEQEDIATYFCQQGNTLPYTFGGGTKLEITGGGGSQVQLVQSGAEVKKPGASVKVSCKASGYTFTSYAMHWVRQAPGQRLEWMGWINAGNGNTKYSQKFQGRVTITRDTSASTAYMELRSLRSDDTAVYYCASGPGRLPVVWGQGTLVTVSSGGGGSGGGGSGGGGSSYVLTQPPSVSVAPGKTARITCGGNNIGSKSVHWYQQKPGQAPVLVVYDDSDRPSGIPERFSGSNSGNTATLTISRVEAGDEADYYCQVWDSSSDHVVFGGGTKLTVLGGGGSEVKLQESGPGLVAPSQSLSVTCTVSGVSLPDYGVSWIRQPPRKGLEWLGVIWGSETTYYNSALKSRLTIIKDNSKSQVFLKMNSLQTDDTAIYYCAKHYYYGGSYAMDYWGQGTSVTVSSESKYGPPCPPCPMFWVLVVVGGVLACYSLLVTVAFIIFWVKRGRKKLLYIFKQPFMRPVQTTQEEDGCSCRFPEEEEGGCELRVKFSRSADAPAYQQGQNQLYNELNLGRREEYDVLDKRRGRDPEMGGKPRRKNPQEGLYNELQKDKMAEAYSEIGMKGERRRGKGHDGLYQGLSTATKDTYDALHMQALPPR | > 50 | > 80 | > 80 |  | 
JH2 CAR/LoP (other) DIQMTQTTSSLSASLGDRVTISCRASQDISKYLNWYQQKPDGTVKLLIYHTSRLHSGVPSRFSGSGSGTDYSLTISNLEQEDIATYFCQQGNTLPYTFGGGTKLEITGGGGSQVQLQESGPGLVKPSETLSLTCTVSGGSISSYYWSWIRQPPGKGLEWIGYINNSGSTNYNPSLKSRVTISVDTSKNQFSLKLSSVTAADTAVYYCAREDDYWGQGTLVTVSSGGGGSGGGGSGGGGSEIVMTQSPATLSLSPGERATLSCRASQIISSSYLSWYQQKPGQAPRLLIYGASTRATGIPARFSGSGSGTDFTLTISSLQPEDFAVYYCQQDYDFPFTFGPGTKVDIKRGGGGSEVKLQESGPGLVAPSQSLSVTCTVSGVSLPDYGVSWIRQPPRKGLEWLGVIWGSETTYYNSALKSRLTIIKDNSKSQVFLKMNSLQTDDTAIYYCAKHYYYGGSYAMDYWGQGTSVTVSSESKYGPPCPPCPMFWVLVVVGGVLACYSLLVTVAFIIFWVKRGRKKLLYIFKQPFMRPVQTTQEEDGCSCRFPEEEEGGCELRVKFSRSADAPAYQQGQNQLYNELNLGRREEYDVLDKRRGRDPEMGGKPRRKNPQEGLYNELQKDKMAEAYSEIGMKGERRRGKGHDGLYQGLSTATKDTYDALHMQALPPR | > 50 | > 80 | > 80 | ≤ 10 | 
JH2 CAR/LiD/a (other) DIQMTQTTSSLSASLGDRVTISCRASQDISKYLNWYQQKPDGTVKLLIYHTSRLHSGVPSRFSGSGSGTDYSLTISNLEQEDIATYFCQQGNTLPYTFGGGTKLEITGSTSGSGKPGSGEGSTKGEVKLQESGPGLVAPSQSLSVTCTVSGVSLPDYGVSWIRQPPRKGLEWLGVIWGSETTYYNSALKSRLTIIKDNSKSQVFLKMNSLQTDDTAIYYCAKHYYYGGSYAMDYWGQGTSVTVSSGGGGSQVQLQESGPGLVKPSETLSLTCTVSGGSISSYYWSWIRQPPGKGLEWIGYINNSGSTNYNPSLKSRVTISVDTSKNQFSLKLSSVTAADTAVYYCAREDDYWGQGTLVTVSSGGGGSGGGGSGGGGSEIVMTQSPATLSLSPGERATLSCRASQIISSSYLSWYQQKPGQAPRLLIYGASTRATGIPARFSGSGSGTDFTLTISSLQPEDFAVYYCQQDYDFPFTFGPGTKVDIKRESKYGPPCPPCPMFWVLVVVGGVLACYSLLVTVAFIIFWVKRGRKKLLYIFKQPFMRPVQTTQEEDGCSCRFPEEEEGGCELRVKFSRSADAPAYQQGQNQLYNELNLGRREEYDVLDKRRGRDPEMGGKPRRKNPQEGLYNELQKDKMAEAYSEIGMKGERRRGKGHDGLYQGLSTATKDTYDALHMQALPPR |  |  |  | ≤ 10 | ≤ 20
JH4 CAR/LiD (other) DIQMTQTTSSLSASLGDRVTISCRASQDISKYLNWYQQKPDGTVKLLIYHTSRLHSGVPSRFSGSGSGTDYSLTISNLEQEDIATYFCQQGNTLPYTFGGGTKLEITGSTSGSGKPGSGEGSTKGEVKLQESGPGLVAPSQSLSVTCTVSGVSLPDYGVSWIRQPPRKGLEWLGVIWGSETTYYNSALKSRLTIIKDNSKSQVFLKMNSLQTDDTAIYYCAKHYYYGGSYAMDYWGQGTSVTVSSGGGGSQVQLQESGPGLVKPSETLSLTCTVSGGSISSYYWSWIRQSPGKGLEWIGYIHYSGNTNYNPSLKSRVTISVDTSKNQFSLKLSSVTAADTAVYYCAREDDYWGQGTLVTVSSGGGGSGGGGSGGGGSEIVMTQSPATLSLSPGERATLSCRASQSVSSNYLSWYQQKPGQAPRLLIYGASTRATGIPARFSGSGSGTDFTLTISSLQPEDFAVYYCQQDFDFPFTFGPGTKVDIKRESKYGPPCPPCPMFWVLVVVGGVLACYSLLVTVAFIIFWVKRGRKKLLYIFKQPFMRPVQTTQEEDGCSCRFPEEEEGGCELRVKFSRSADAPAYQQGQNQLYNELNLGRREEYDVLDKRRGRDPEMGGKPRRKNPQEGLYNELQKDKMAEAYSEIGMKGERRRGKGHDGLYQGLSTATKDTYDALHMQALPPR |  |  |  | ≤ 10 | ≤ 20
JH2 CAR/LiD/b (other) DIQMTQTTSSLSASLGDRVTISCRASQDISKYLNWYQQKPDGTVKLLIYHTSRLHSGVPSRFSGSGSGTDYSLTISNLEQEDIATYFCQQGNTLPYTFGGGTKLEITGSTSGSGKPGSGEGSTKGEVKLQESGPGLVAPSQSLSVTCTVSGVSLPDYGVSWIRQPPRKGLEWLGVIWGSETTYYNSALKSRLTIIKDNSKSQVFLKMNSLQTDDTAIYYCAKHYYYGGSYAMDYWGQGTSVTVSSGGGGSEIVMTQSPATLSLSPGERATLSCRASQIISSSYLSWYQQKPGQAPRLLIYGASTRATGIPARFSGSGSGTDFTLTISSLQPEDFAVYYCQQDYDFPFTFGPGTKVDIKRGGGGSGGGGSGGGGSQVQLQESGPGLVKPSETLSLTCTVSGGSISSYYWSWIRQPPGKGLEWIGYINNSGSTNYNPSLKSRVTISVDTSKNQFSLKLSSVTAADTAVYYCAREDDYWGQGTLVTVSSESKYGPPCPPCPMFWVLVVVGGVLACYSLLVTVAFIIFWVKRGRKKLLYIFKQPFMRPVQTTQEEDGCSCRFPEEEEGGCELRVKFSRSADAPAYQQGQNQLYNELNLGRREEYDVLDKRRGRDPEMGGKPRRKNPQEGLYNELQKDKMAEAYSEIGMKGERRRGKGHDGLYQGLSTATKDTYDALHMQALPPR |  |  |  | ≤ 10 | ≤ 20
JH3 CAR/LoD (other) EIVMTQSPATLSLSPGERATLSCRASQSVSSNYFSWYQQKPGQAPRLLIYGASTRATGIPARFSGSGSGTDFTLTISSLQPEDFAVYYCQQDYDFPFTFGPGTKVDIKRGGGGSGGGGSDIQMTQTTSSLSASLGDRVTISCRASQDISKYLNWYQQKPDGTVKLLIYHTSRLHSGVPSRFSGSGSGTDYSLTISNLEQEDIATYFCQQGNTLPYTFGGGTKLEITGSTSGSGKPGSGEGSTKGEVKLQESGPGLVAPSQSLSVTCTVSGVSLPDYGVSWIRQPPRKGLEWLGVIWGSETTYYNSALKSRLTIIKDNSKSQVFLKMNSLQTDDTAIYYCAKHYYYGGSYAMDYWGQGTSVTVSSGGGGSGGGGSQVQLQESGPGLVKPSETLSLTCTVSGGSISNYYWSWIRQPPGKGLEWIGYIYYSGSTIYNPSLKSRVTISVDTSKNQFSLKLSSVTAADTAVYYCAGDSSGIDYWGQGTLVTVSSESKYGPPCPPCPMFWVLVVVGGVLACYSLLVTVAFIIFWVKRGRKKLLYIFKQPFMRPVQTTQEEDGCSCRFPEEEEGGCELRVKFSRSADAPAYQQGQNQLYNELNLGRREEYDVLDKRRGRDPEMGGKPRRKNPQEGLYNELQKDKMAEAYSEIGMKGERRRGKGHDGLYQGLSTATKDTYDALHMQALPPR |  |  |  | ≤ 10 | ≤ 20
JH2 CAR/LoD/b (other) QVQLQESGPGLVKPSETLSLTCTVSGGSISSYYWSWIRQPPGKGLEWIGYINNSGSTNYNPSLKSRVTISVDTSKNQFSLKLSSVTAADTAVYYCAREDDYWGQGTLVTVSSGGGGSDIQMTQTTSSLSASLGDRVTISCRASQDISKYLNWYQQKPDGTVKLLIYHTSRLHSGVPSRFSGSGSGTDYSLTISNLEQEDIATYFCQQGNTLPYTFGGGTKLEITGSTSGSGKPGSGEGSTKGEVKLQESGPGLVAPSQSLSVTCTVSGVSLPDYGVSWIRQPPRKGLEWLGVIWGSETTYYNSALKSRLTIIKDNSKSQVFLKMNSLQTDDTAIYYCAKHYYYGGSYAMDYWGQGTSVTVSSGGGGSEIVMTQSPATLSLSPGERATLSCRASQIISSSYLSWYQQKPGQAPRLLIYGASTRATGIPARFSGSGSGTDFTLTISSLQPEDFAVYYCQQDYDFPFTFGPGTKVDIKRESKYGPPCPPCPMFWVLVVVGGVLACYSLLVTVAFIIFWVKRGRKKLLYIFKQPFMRPVQTTQEEDGCSCRFPEEEEGGCELRVKFSRSADAPAYQQGQNQLYNELNLGRREEYDVLDKRRGRDPEMGGKPRRKNPQEGLYNELQKDKMAEAYSEIGMKGERRRGKGHDGLYQGLSTATKDTYDALHMQALPPR |  |  |  | ≤ 10 | ≤ 20
